Results from US20150374794A1 (Novo Nordisk, published 2015).
Numbered stars: 1 amine (or outer) side, 2 acyl side, 3 side chain; on linkers, the order of the positions; unused ones are H or OH. Square brackets hold non-standard residues; d marks the D form. Side chains are listed from the residue outwards. Ends that are not written are not given here. * marks the point of attachment. C18 diacid = O=C(O)CCCCCCCCCCCCCCCCC(=O)*; γGlu = O=C(O)[C@H](CCC(=O)[*:2])N[*:1]; Ac4c = NC1(C(=O)O)CCC1; AEEA = NCCOCCOCC(=O)O; Aib = CC(C)(N)C(=O)O

B1: N^ε16-[(4S)-4-carboxy-4-[[(4S)-4-carboxy-4-[[2-[2-[2-[[2-[2-[2-[[(4S)-4-carboxy-4-(17-carboxyheptadecanoylamino)butanoyl]amino]ethoxy]ethoxy]acetyl]amino]ethoxy … (peptide)
peptide: H[Aib]QGTFTSDLSKYLDK([γGlu-γGlu-AEEA-AEEA-γGlu-C18 diacid])RRAREFVQWLLNT-NH2
modifications: N-terminus assumed
SMILES: CC(C)C[C@H](NC(=O)[C@H](Cc1ccc(O)cc1)NC(=O)[C@H](CCCCN)NC(=O)[C@H](CO)NC(=O)[C@H](CC(C)C)NC(=O)[C@H](CC(=O)O)NC(=O)[C@H](CO)NC(=O)[C@@H](NC(=O)[C@H](Cc1ccccc1)NC(=O)[C@@H](NC(=O)CNC(=O)[C@H](CCC(N)=O)NC(=O)C(C)(C)NC(=O)[C@@H](N)Cc1c[nH]cn1)[C@@H](C)O)[C@@H](C)O)C(=O)N[C@@H](CC(=O)O)C(=O)N[C@@H](CCCCNC(=O)CC[C@H](NC(=O)CC[C@H](NC(=O)COCCOCCNC(=O)COCCOCCNC(=O)CC[C@H](NC(=O)CCCCCCCCCCCCCCCCC(=O)O)C(=O)O)C(=O)O)C(=O)O)C(=O)N[C@@H](CCCNC(=N)N)C(=O)N[C@@H](CCCNC(=N)N)C(=O)N[C@@H](C)C(=O)N[C@@H](CCCNC(=N)N)C(=O)N[C@@H](CCC(=O)O)C(=O)N[C@@H](Cc1ccccc1)C(=O)N[C@H](C(=O)N[C@@H](CCC(N)=O)C(=O)N[C@@H](Cc1c[nH]c2ccccc12)C(=O)N[C@@H](CC(C)C)C(=O)N[C@@H](CC(C)C)C(=O)N[C@@H](CC(N)=O)C(=O)N[C@H](C(N)=O)[C@@H](C)O)C(C)C
B2: N^ε28-[2-[2-[2-[[2-[2-[2-[[(4S)-4-carboxy-4-[[(4S)-4-carboxy-4-[[(4S)-4-carboxy-4-(17-carboxyheptadecanoylamino)butanoyl]amino]butanoyl]amino]butanoyl]amino]eth … (peptide)
peptide: H[Aib]QGTFTSDLSKYLESRRARDFVQWLLK([AEEA-AEEA-γGlu-γGlu-γGlu-C18 diacid])T-NH2
modifications: N-terminus assumed
SMILES: CC(C)C[C@H](NC(=O)[C@H](Cc1ccc(O)cc1)NC(=O)[C@H](CCCCN)NC(=O)[C@H](CO)NC(=O)[C@H](CC(C)C)NC(=O)[C@H](CC(=O)O)NC(=O)[C@H](CO)NC(=O)[C@@H](NC(=O)[C@H](Cc1ccccc1)NC(=O)[C@@H](NC(=O)CNC(=O)[C@H](CCC(N)=O)NC(=O)C(C)(C)NC(=O)[C@@H](N)Cc1c[nH]cn1)[C@@H](C)O)[C@@H](C)O)C(=O)N[C@@H](CCC(=O)O)C(=O)N[C@@H](CO)C(=O)N[C@@H](CCCNC(=N)N)C(=O)N[C@@H](CCCNC(=N)N)C(=O)N[C@@H](C)C(=O)N[C@@H](CCCNC(=N)N)C(=O)N[C@@H](CC(=O)O)C(=O)N[C@@H](Cc1ccccc1)C(=O)N[C@H](C(=O)N[C@@H](CCC(N)=O)C(=O)N[C@@H](Cc1c[nH]c2ccccc12)C(=O)N[C@@H](CC(C)C)C(=O)N[C@@H](CC(C)C)C(=O)N[C@@H](CCCCNC(=O)COCCOCCNC(=O)COCCOCCNC(=O)CC[C@H](NC(=O)CC[C@H](NC(=O)CC[C@H](NC(=O)CCCCCCCCCCCCCCCCC(=O)O)C(=O)O)C(=O)O)C(=O)O)C(=O)N[C@H](C(N)=O)[C@@H](C)O)C(C)C
B3: N^ε28-[2-[2-[2-[[2-[2-[2-[[(4S)-4-carboxy-4-[[(4S)-4-carboxy-4-[[(4S)-4-carboxy-4-(17-carboxyheptadecanoylamino)butanoyl]amino]butanoyl]amino]butanoyl]amino]eth … (peptide)
peptide: H[Ac4c]QGTFTSDLSKYLESRRAQDFVQWLLK([AEEA-AEEA-γGlu-γGlu-γGlu-C18 diacid])T-NH2
modifications: N-terminus assumed
SMILES: CC(C)C[C@H](NC(=O)[C@H](Cc1ccc(O)cc1)NC(=O)[C@H](CCCCN)NC(=O)[C@H](CO)NC(=O)[C@H](CC(C)C)NC(=O)[C@H](CC(=O)O)NC(=O)[C@H](CO)NC(=O)[C@@H](NC(=O)[C@H](Cc1ccccc1)NC(=O)[C@@H](NC(=O)CNC(=O)[C@H](CCC(N)=O)NC(=O)C1(NC(=O)[C@@H](N)Cc2c[nH]cn2)CCC1)[C@@H](C)O)[C@@H](C)O)C(=O)N[C@@H](CCC(=O)O)C(=O)N[C@@H](CO)C(=O)N[C@@H](CCCNC(=N)N)C(=O)N[C@@H](CCCNC(=N)N)C(=O)N[C@@H](C)C(=O)N[C@@H](CCC(N)=O)C(=O)N[C@@H](CC(=O)O)C(=O)N[C@@H](Cc1ccccc1)C(=O)N[C@H](C(=O)N[C@@H](CCC(N)=O)C(=O)N[C@@H](Cc1c[nH]c2ccccc12)C(=O)N[C@@H](CC(C)C)C(=O)N[C@@H](CC(C)C)C(=O)N[C@@H](CCCCNC(=O)COCCOCCNC(=O)COCCOCCNC(=O)CC[C@H](NC(=O)CC[C@H](NC(=O)CC[C@H](NC(=O)CCCCCCCCCCCCCCCCC(=O)O)C(=O)O)C(=O)O)C(=O)O)C(=O)N[C@H](C(N)=O)[C@@H](C)O)C(C)C
B4: N^ε28-[2-[2-[2-[[2-[2-[2-[[(4S)-4-carboxy-4-[[(4S)-4-carboxy-4-[[(4S)-4-carboxy-4-(17-carboxyheptadecanoylamino)butanoyl]amino]butanoyl]amino]butanoyl]amino]eth … (peptide)
peptide: H[Aib]QGTFTSDLSKYLDARRARDFVQWLLK([AEEA-AEEA-γGlu-γGlu-γGlu-C18 diacid])T-NH2
modifications: N-terminus assumed
SMILES: CC(C)C[C@H](NC(=O)[C@H](Cc1ccc(O)cc1)NC(=O)[C@H](CCCCN)NC(=O)[C@H](CO)NC(=O)[C@H](CC(C)C)NC(=O)[C@H](CC(=O)O)NC(=O)[C@H](CO)NC(=O)[C@@H](NC(=O)[C@H](Cc1ccccc1)NC(=O)[C@@H](NC(=O)CNC(=O)[C@H](CCC(N)=O)NC(=O)C(C)(C)NC(=O)[C@@H](N)Cc1c[nH]cn1)[C@@H](C)O)[C@@H](C)O)C(=O)N[C@@H](CC(=O)O)C(=O)N[C@@H](C)C(=O)N[C@@H](CCCNC(=N)N)C(=O)N[C@@H](CCCNC(=N)N)C(=O)N[C@@H](C)C(=O)N[C@@H](CCCNC(=N)N)C(=O)N[C@@H](CC(=O)O)C(=O)N[C@@H](Cc1ccccc1)C(=O)N[C@H](C(=O)N[C@@H](CCC(N)=O)C(=O)N[C@@H](Cc1c[nH]c2ccccc12)C(=O)N[C@@H](CC(C)C)C(=O)N[C@@H](CC(C)C)C(=O)N[C@@H](CCCCNC(=O)COCCOCCNC(=O)COCCOCCNC(=O)CC[C@H](NC(=O)CC[C@H](NC(=O)CC[C@H](NC(=O)CCCCCCCCCCCCCCCCC(=O)O)C(=O)O)C(=O)O)C(=O)O)C(=O)N[C@H](C(N)=O)[C@@H](C)O)C(C)C
B5: N^ε28-[2-[2-[2-[[2-[2-[2-[[(4S)-4-carboxy-4-[[(4S)-4-carboxy-4-[[(4S)-4-carboxy-4-(17-carboxyheptadecanoylamino)butanoyl]amino]butanoyl]amino]butanoyl]amino]eth … (peptide)
peptide: H[Aib]QGTFTSDLSRYLDARRAQDFVQWLLK([AEEA-AEEA-γGlu-γGlu-γGlu-C18 diacid])T-NH2
modifications: N-terminus assumed
SMILES: CC(C)C[C@H](NC(=O)[C@H](Cc1ccc(O)cc1)NC(=O)[C@H](CCCNC(=N)N)NC(=O)[C@H](CO)NC(=O)[C@H](CC(C)C)NC(=O)[C@H](CC(=O)O)NC(=O)[C@H](CO)NC(=O)[C@@H](NC(=O)[C@H](Cc1ccccc1)NC(=O)[C@@H](NC(=O)CNC(=O)[C@H](CCC(N)=O)NC(=O)C(C)(C)NC(=O)[C@@H](N)Cc1c[nH]cn1)[C@@H](C)O)[C@@H](C)O)C(=O)N[C@@H](CC(=O)O)C(=O)N[C@@H](C)C(=O)N[C@@H](CCCNC(=N)N)C(=O)N[C@@H](CCCNC(=N)N)C(=O)N[C@@H](C)C(=O)N[C@@H](CCC(N)=O)C(=O)N[C@@H](CC(=O)O)C(=O)N[C@@H](Cc1ccccc1)C(=O)N[C@H](C(=O)N[C@@H](CCC(N)=O)C(=O)N[C@@H](Cc1c[nH]c2ccccc12)C(=O)N[C@@H](CC(C)C)C(=O)N[C@@H](CC(C)C)C(=O)N[C@@H](CCCCNC(=O)COCCOCCNC(=O)COCCOCCNC(=O)CC[C@H](NC(=O)CC[C@H](NC(=O)CC[C@H](NC(=O)CCCCCCCCCCCCCCCCC(=O)O)C(=O)O)C(=O)O)C(=O)O)C(=O)N[C@H](C(N)=O)[C@@H](C)O)C(C)C
B6: N^ε16-[(4S)-4-carboxy-4-[[(4S)-4-carboxy-4-[[2-[2-[2-[[(4S)-4-carboxy-4-[[(4S)-4-carboxy-4-(17-carboxyheptadecanoylamino)butanoyl]amino]butanoyl]amino]ethoxy]et … (peptide)
peptide: H[Aib]QGTFTSDLSKYLDK([γGlu-γGlu-AEEA-γGlu-γGlu-C18 diacid])RRAQEFVQWLLNT-NH2
modifications: N-terminus assumed
SMILES: CC(C)C[C@H](NC(=O)[C@H](Cc1ccc(O)cc1)NC(=O)[C@H](CCCCN)NC(=O)[C@H](CO)NC(=O)[C@H](CC(C)C)NC(=O)[C@H](CC(=O)O)NC(=O)[C@H](CO)NC(=O)[C@@H](NC(=O)[C@H](Cc1ccccc1)NC(=O)[C@@H](NC(=O)CNC(=O)[C@H](CCC(N)=O)NC(=O)C(C)(C)NC(=O)[C@@H](N)Cc1c[nH]cn1)[C@@H](C)O)[C@@H](C)O)C(=O)N[C@@H](CC(=O)O)C(=O)N[C@@H](CCCCNC(=O)CC[C@H](NC(=O)CC[C@H](NC(=O)COCCOCCNC(=O)CC[C@H](NC(=O)CC[C@H](NC(=O)CCCCCCCCCCCCCCCCC(=O)O)C(=O)O)C(=O)O)C(=O)O)C(=O)O)C(=O)N[C@@H](CCCNC(=N)N)C(=O)N[C@@H](CCCNC(=N)N)C(=O)N[C@@H](C)C(=O)N[C@@H](CCC(N)=O)C(=O)N[C@@H](CCC(=O)O)C(=O)N[C@@H](Cc1ccccc1)C(=O)N[C@H](C(=O)N[C@@H](CCC(N)=O)C(=O)N[C@@H](Cc1c[nH]c2ccccc12)C(=O)N[C@@H](CC(C)C)C(=O)N[C@@H](CC(C)C)C(=O)N[C@@H](CC(N)=O)C(=O)N[C@H](C(N)=O)[C@@H](C)O)C(C)C

Assays:
[1] = target: T1, human glucagon receptor (human, UniProt P47871 26-477); assay: displacement of 125I-glucagon, membranes with human glucagon receptor, SPA
T1 construct: whole, on cells; the potency assay used whole cells (clone pLJ6'-4-25); also called GlucR; hGCGR
Procedure: (§1) The receptor binding of each compound to the human glucagon receptor was measured in a displacement binding assay. […] Each derivative was added in a series of concentrations to isolated membranes containing the human glucagon receptor and displacement of the labelled ligand is monitored. The receptor binding was reported as the concentration at which half of the labelled ligand is displaced from the receptor, the IC₅₀ value.

[2] = target: T1, human glucagon receptor; assay: cell-based or functional assay
[3] = target: T2, human GLP-1 receptor (human, UniProt P43220 24-463); assay: cell-based or functional assay
[4] = target: T2, human GLP-1 receptor; assay: displacement of 125I-GLP-1(7-36)NH2, membranes with human GLP-1R, SPA
Procedure: as §1, with “human GLP-1” for “human glucagon”, “ligand was” for “ligand is”

T1 sequence (P47871 26-477): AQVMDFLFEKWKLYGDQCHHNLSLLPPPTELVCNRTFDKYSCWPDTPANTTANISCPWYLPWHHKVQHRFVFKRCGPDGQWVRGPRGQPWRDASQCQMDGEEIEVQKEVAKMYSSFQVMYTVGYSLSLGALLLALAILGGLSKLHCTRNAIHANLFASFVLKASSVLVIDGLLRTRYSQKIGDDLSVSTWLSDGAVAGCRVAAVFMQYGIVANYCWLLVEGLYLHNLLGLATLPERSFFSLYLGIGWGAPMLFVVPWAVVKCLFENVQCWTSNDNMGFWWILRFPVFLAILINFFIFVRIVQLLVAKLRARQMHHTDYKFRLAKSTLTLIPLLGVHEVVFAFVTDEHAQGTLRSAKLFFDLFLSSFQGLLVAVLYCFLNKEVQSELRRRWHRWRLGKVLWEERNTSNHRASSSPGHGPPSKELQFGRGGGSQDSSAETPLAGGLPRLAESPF

| Binder | IC50 [1] [nM] | EC50 GlucR, CRE luciferase reporter gene assay in BHK cells [2] [nM] | EC50 GLP-1R, CRE luciferase reporter gene assay in BHK cells [3] [nM] | IC50 [4] [nM] |
| --- | --- | --- | --- | --- |
| B1 | 1.2 | 0.0423 | 0.0092 | 0.5 |
| B2 | 19 | 0.129 | 0.003 | 0.2 |
| B3 | 7.7 | 0.024 | 0.007 | 0.8 |
| B4 | 2.6 | 0.0113 | 0.0043 | 0.2 |
| B5 | 5.5 | 0.02 | 0.003 | 0.9 |
| B6 | 5.9 | 0.0588 | 0.0266 | 1.4 |
